Measured values from the DeepSol protein solubility set.

assay: soluble on expression in E. coli; label from the status in PepcDB or PDB records

Row | Sequence | soluble on expression in E. coli
1 | MNVRDLSFKLNSIFDINKYEHIDKNLNGLQVGNINAKVNKVAFAVDASFSTLKEAKGNDFLITHHGIFWSKKERIVSNMYDKTKFLIENNLALYSVHLPMDAHSVYSHSKVFSDFLGLKNSFAFANYGGVNLGIIADSVFSFSEILEKIKKENKHILFSKKFKESVNKVAIVSGSGYSFFEEALCHDVDLFITGDTSHQIYSLAEEFGVNLIFAGHYFTETFGLIKLMEDFKIQEDLEVKFICKNTNLLEHHHHHH | not soluble
2 | MTSLIGTHSGKFHCDEAFACFMLKQLPQFKDHSILRTRDAAQLEKCDIIVDVGGIFDHSKQRYDHHQRGFTDTMRTLEKLNFDTKLSSAGLVYAHYGREVINQILGGNVSSSMIDLFYHRLYEQFVESIDAIDNGISQYDGVPRYHSSGNLSSRTGQFNSHWNEPENDADERFQQAMQFIGEEFSRSVKYLANVWWPAREIIEAAVDKRFEIDASGRIILIENGGCPWKEHFFDIEVEKNIADDNITYILFSDSTNASWRVQAIPVDKMSSFENRMPLPAAWRGLRDDDLSKESGIPGGVFVHISGFIGGNLTREGAIAMARKALEIGEENPVKKAKLGN | soluble
3 | MSKLGKQDVYYFEGLDDILIAMMTTKDAVGTEPAFGEVVRLPIATKLGIKGNGTALEKWASSKMFRRVSRETKHEIALDHVGIPIAVMDEIKGLIAQSGVTFGKNTAREFPYFAFGFIGNIENGGKKAVWYPKTQLSNVIDEEYTTAEDETKIDDVTANFVSTGLTYNNVMYSSFDSNRDSASIELFEKFIAQPVYDEEQWKKLAGPSRGGGSE | not soluble
4 | ATGTCGTTGGCAAAAGCGTCCTTGTGGACGGCGGCCAGTACACTGGTCAAGATTGGTGCCGGGTTACTGGTCGGTAAGTTGCTGGCGGTGTCATTTGGTCCGGCGGGGCTTGGGCTGGCGGCAAATTTCCGCCAGTTGATTACCGTGCTCGGCGTGCTTGCCGGGGCTGGCATCTTTAACGGTGTAACCAAATACGTTGCCCAGTACCATGATAATCCGCAACAGCTGCGCCGCGTGGTCGGCACTTCATCAGCGATGGTACTTGGTTTCTCTACGCTGATGGCGCTGGTTTTTGTGCTGGCAGCTGCGCCAATCAGCCAGGGATTGTTTGGTAATACCGACTATCAGGGGCTGGTGCGTTTAGTGGCGCTGGTGCAAATGGGGATCGCCTGGGGCAACCTGTTACTGGCGCTGATGAAAGGCTTTCGSGATGCCGCAGGTAATGCGTTATCGCTGATTGTCGGCAGCTTGATTGGCGTTCTCGCGTACTACGTCAGTTACCGTTTGGGCGGTTATGAAGGGGCGTTGCTGGGTCTGGCGCTGATTCCCGCGCTGGTGGTAATTCCTGCCGCCATCATGTTGATCAAACGTGGTGTCATCCCGTTAAGCTATCTGAAACCCAGCTGGGATAACGGTCTGGCAGGGCAGTTGAGCAAATTTACGCTCATGGCGTTGATTACGTCGGTGACCTTGCCTGTTGCTTACATCATGATGCGTAAACTGCTGGCGGCGCAGTATAGCTGGGATGAGGTGGGGATCTGGCAAGGGGTGAGCAGTATTTCCGATGCCTACCTGCAATTTATTACGGCATCGTTCAGCGTATATTTGCTGCCCACGTTGTCGCGGCTAACGGAAAAGCGCGATATCACCCGGGAAGTGGTTAAATCGCTGAAATTCGTCTTACCGGCAGTGGCGGCGGCGAGTTTTACCGTCTGGCTGCTGCGTGATTTTGCTATCTGGCTGCTGTTGTCGAATAAATTTACCGCTATGCGCGATCTCTTTGCCTGGCAGTTAGTGGGTGATGTGTTAAAAGTGGGCGCTTATGTCTTTGGTTATCTGGTGATCGCCAAAGCGTCACTGCGGTTTTATATTCTGGCGGAAGTCAGCCAGTTCACTTTATTGATGGTATTTGCCCACTGGCTAATCCCTGCGCATGGTGCACTGGGCGCGGCGCAGGCATATATGGCAACTTATATCGTCTATTTTTCTCTTTGTTGTGGCGTGTTTTTACTCTGGCGTAGGCGGGCATGA | not soluble
5 | SSSNSEKEWHIVPVSKDYFSIPNDLLWSFNTTNKSINVYSKCISGKAVYSFNAGKFMGNFNVKEVDGCFMDAQKIAIDKLFSMLKDGVVLKGNKINDTILIEKDGEVKLKLIRGI | soluble
